Measured values from the nanobody polyreactivity screen of Harvey et al. (2022).

Experiment: yeast display, Sf9 membrane polyspecificity reagent, FACS + sequencing; frameworks hold sequencing errors
Outline: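 In a synthetic yeast display library (Saccharomyces cerevisiae BJ5465), nanobody expression was induced with galactose for 36–48 hours. FACS gates were set low and high (top ~1%) using anti-HA fluorescence for expression and streptavidin fluorescence for binding of the Sf9 membrane reagent. Each polyreactivity label is drawn from the gate of origin.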

Sequence | polyreactivity (PSR sort gate)
QVHLVESGGGLVQAGGSLRLSCAASGSTIDRYAMGWYRQAPGKERELVASISKRGGSTYYADSVKGRFTISRDNAKNTVYLQMNSLKPEDTAVYYCAAKWASQYDYWGQGTQVTVSS | high polyreactivity
QVHLVESGGGLVQAGGSLRLSCAASGSTLGYYAMGWYRQAPGKERELVASIRWDTASTYYADSVKGRFTISRDNAKNTVYLQMNSLKPEDTAVYYCNAGRPRFYRCRWYYYGYGYWGQGTQVTVSS | high polyreactivity
QVHLVESGGGLVQAGGSLRLSCAASGSTLSFYARGWYRQAPGKERELVAAISSSGGSTYYADSVKGRFTISRDNAKNTVYLQMNSLKPEDTAVYYCNAVRRNYGYDYWGQGTQVTVSS | high polyreactivity
QVHLVESGGGLVQAGGSLRLSCAASGSTVYNAMGWYRQAPGKERELVAVITDSDGSTYYADSVKGRFTISRDNAKNTVYLQMNSLKPEDTAVYYCAVTAIALYYSSGYYWGQGTQVTVSS | low polyreactivity
QVHLVESGGGLVQAGGSLRLSCAASGTTFGVYALGWYRQAPGKERELVAVITSRGGSTYYADSVKGRFTISRDNAKNTVYLQMNSLKPEDSAVYYCNTSTSRVPGNGEYWGQGTQVTVSS | high polyreactivity
QVHLVESGGGLVQAGGSLRLSCAASVRIFQIYAMGWYRQAPGKERELVATISSGTRTYYADSVKGRFTISRDNAKNTVYLQMISLKPEDTAVYYCAKTYATRHAYWAGTRYEDDYWGQGTQVTVSS | high polyreactivity
QVHLVESGGGLVQAGGSLRLSCAATGSIFRPYAMGWYRQAPGKERELVATITWRGGTTYYADSVKGRFTISRDNAKNTVILQMISLKPEDSAVYYCAAYVPFLTSAYDYWGHGTQVTVSS | low polyreactivity
QVHLVESGGGLVQAGGSLRLSCAATGSTISRYAMGWYRPAPGKERELVAAISWGGNTYYADSVKGRFTISRDNAKNTVYLQMNSLKPEDTAVYYCNRYSKLYNTMDYWGQGTQVTVSS | high polyreactivity
QVHLVESGGGLVQAGGSLRLSCASSGFTFRANAMGWYRPAPGKERELVAVITGSGRTYYAHSVKGRFTISRDNAKNSVYLKMNSLKPEDTAVYYCAARAAYRVSSTGYDSWGQGSQVTVSS | high polyreactivity
QVHLVESGGGLVQAGGSLRLSCPASGSTIRRYAMGWYRQPHGKERELVAAIRQRGTYTYYADSVKGRFTISRDTAKNTVYLQMNSLKPEDTAVYYCSGVPSLWLFNSWGQGTQVTVSS | high polyreactivity
QVHLVESGGGLVQAGGSLRLSCSASGRIFRVYAMGWYRQPPGKERELVAAIDQRGGRTYYADSVKGRFTISRDNAKNTVYLQMNSLKPEDTAVYYCNAEYYVSSLVESEYWGQGSQVTVSS | low polyreactivity
QVHLVESGGGLVQAGGSLRLSCSAYGSIFAYYAMGWYRQAPGKERELVAAIRSSGGSTYYADSVKGRFTISRDNANNTVYLQMNSLKPEVTAVYYCNVASRRIGPYVYWGQGTQVTVSS | high polyreactivity
QVHLVESGGGLVQAGGSLRLSFAADGSSFVRYAMGWYRQAPGKEREFVAAISRTGGSTYYADSVKGRFTLSRDNAKNTVYLQMNSLKQEVTAVFYCDARYIRGYDYWGQGTKVTVSS | high polyreactivity
QVHLVESGGGLVQAGGSLRLSFAASGLIFFVYAMGWYRQAPGIERELVAGIRSSGGSTYYADSVKGRFTISRDNAKNTVYLQMNSLKPEDTAVYYCAARYRYGWAYRKGGDYWGQGTKVTVSS | high polyreactivity
QVHLVESGGGLVQAGGSLRLSLAASGRIFGGYAMGWYRQAPGKERELVAGITNTGDTYYADSVKGRFTISRDNAKNNVYLQMNSLKPEDTAVYYCNAEGDKRRDRYDYWGQGTQVTVSS | low polyreactivity
QVHLVESGGGLVQAGGSLRLSSAASGFICYQYAMGWYRQAPGKERELVAAISRRGGGTYYADSVKGRFTISRDNAKNTVYLEMNRLKPEDTAVYYCNTDRLGRITFGGYDYWGQGTQVTVSS | high polyreactivity
